Data from patent US20040073001A1 (Kyowa Kirin, published 2004).

T1: GFP-B9L (full-length), full-length B9L cDNA in pEGFP-C2 (plasmid pEGFP-C2B9L) (mouse, UniProt Q67FY2 1-1494)
T1 construct: expressed in mouse 3T3 cells; also called full-length B9L protein; not shown: green fluorescent protein (GFP) as encoded by vector pEGFP-C2 (Clontech)
T1 sequence: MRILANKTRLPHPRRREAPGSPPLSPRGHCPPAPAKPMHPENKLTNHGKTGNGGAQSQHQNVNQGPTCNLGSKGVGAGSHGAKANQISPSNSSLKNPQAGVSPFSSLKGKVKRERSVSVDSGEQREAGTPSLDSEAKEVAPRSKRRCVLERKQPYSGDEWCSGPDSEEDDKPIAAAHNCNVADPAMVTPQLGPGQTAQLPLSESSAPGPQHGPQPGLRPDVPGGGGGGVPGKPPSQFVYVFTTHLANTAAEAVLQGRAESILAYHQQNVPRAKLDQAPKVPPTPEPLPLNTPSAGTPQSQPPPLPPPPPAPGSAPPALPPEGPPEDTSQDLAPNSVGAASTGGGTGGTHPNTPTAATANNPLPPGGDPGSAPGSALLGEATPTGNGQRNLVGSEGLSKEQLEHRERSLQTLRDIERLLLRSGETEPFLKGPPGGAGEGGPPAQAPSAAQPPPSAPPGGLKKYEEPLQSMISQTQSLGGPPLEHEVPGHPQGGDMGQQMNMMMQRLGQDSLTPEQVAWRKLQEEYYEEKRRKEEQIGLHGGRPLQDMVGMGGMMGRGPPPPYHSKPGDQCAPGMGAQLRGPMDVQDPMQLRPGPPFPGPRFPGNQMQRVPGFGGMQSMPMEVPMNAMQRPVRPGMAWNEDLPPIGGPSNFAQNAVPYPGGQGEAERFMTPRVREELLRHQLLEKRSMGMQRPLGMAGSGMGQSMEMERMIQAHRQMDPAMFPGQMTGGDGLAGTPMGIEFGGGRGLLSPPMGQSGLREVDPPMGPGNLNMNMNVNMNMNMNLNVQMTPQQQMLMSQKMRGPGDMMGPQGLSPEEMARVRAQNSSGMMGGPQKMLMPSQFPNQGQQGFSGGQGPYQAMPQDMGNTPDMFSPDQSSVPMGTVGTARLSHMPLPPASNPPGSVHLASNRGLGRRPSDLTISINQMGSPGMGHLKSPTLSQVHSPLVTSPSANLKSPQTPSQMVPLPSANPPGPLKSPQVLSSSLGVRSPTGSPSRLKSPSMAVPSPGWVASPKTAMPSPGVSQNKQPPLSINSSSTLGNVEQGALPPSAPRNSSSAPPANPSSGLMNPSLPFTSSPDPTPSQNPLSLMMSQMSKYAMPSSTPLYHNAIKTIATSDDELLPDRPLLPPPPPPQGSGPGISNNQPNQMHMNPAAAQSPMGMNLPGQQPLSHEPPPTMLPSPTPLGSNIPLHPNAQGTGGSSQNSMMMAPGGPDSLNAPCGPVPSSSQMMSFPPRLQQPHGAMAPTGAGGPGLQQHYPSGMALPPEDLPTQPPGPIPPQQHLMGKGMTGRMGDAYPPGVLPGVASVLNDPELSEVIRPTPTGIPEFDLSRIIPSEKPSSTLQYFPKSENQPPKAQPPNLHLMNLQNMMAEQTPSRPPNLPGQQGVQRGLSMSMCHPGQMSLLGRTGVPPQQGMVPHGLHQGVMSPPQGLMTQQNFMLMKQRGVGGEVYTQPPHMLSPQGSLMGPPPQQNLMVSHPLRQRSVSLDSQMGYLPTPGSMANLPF

B1: GAL4 AD fusion of B9L partial fragment, residues 245-439 of SEQ ID NO: 2 (other, not shown: large carriers)
chain: LANTAAEAVLQGRAESILAYHQQNVPRAKLDQAPKVPPTPEPLPLNTPSAGTPQSQPPPLPPPPPAPGSAPPALPPEGPPEDTSQDLAPNSVGAASTGGGTGGTHPNTPTAATANNPLPPGGDPGSAPGSALLGEATPTGNGQRNLVGSEGLSKEQLEHRERSLQTLRDIERLLLRSGETEPFLKGPPGGAGEGG
notes: Two-hybrid prey
B2: GAL4 AD fusion of B9L partial fragment, residues 292-564 of SEQ ID NO: 2 (other, not shown: large carriers)
chain: PSAGTPQSQPPPLPPPPPAPGSAPPALPPEGPPEDTSQDLAPNSVGAASTGGGTGGTHPNTPTAATANNPLPPGGDPGSAPGSALLGEATPTGNGQRNLVGSEGLSKEQLEHRERSLQTLRDIERLLLRSGETEPFLKGPPGGAGEGGPPAQAPSAAQPPPSAPPGGLKKYEEPLQSMISQTQSLGGPPLEHEVPGHPQGGDMGQQMNMMMQRLGQDSLTPEQVAWRKLQEEYYEEKRRKEEQIGLHGGRPLQDMVGMGGMMGRGPPPPYHSK
notes: Two-hybrid prey
B3: GAL4 AD fusion of B9L partial fragment, residues 440-564 of SEQ ID NO: 2 (other, not shown: large carriers)
chain: PPAQAPSAAQPPPSAPPGGLKKYEEPLQSMISQTQSLGGPPLEHEVPGHPQGGDMGQQMNMMMQRLGQDSLTPEQVAWRKLQEEYYEEKRRKEEQIGLHGGRPLQDMVGMGGMMGRGPPPPYHSK
notes: Two-hybrid prey
B4: GFP-B9L fusion protein (B9L cDNA fragment, SEQ ID NO: 4, in pEGFP-C2) (other)
chain: LANTAAEAVLQGRAESILAYHQQNVPRAKLDQAPKVPPTPEPLPLNTPSAGTPQSQPPPLPPPPPAPGSAPPALPPEGPPEDTSQDLAPNSVGAASTGGGTGGTHPNTPTAATANNPLPPGGDPGSAPGSALLGEATPTGNGQRNLVGSEGLSKEQLEHRERSLQTLRDIERLLLRSGETEPFLKGPPGGAGEGGPPAQAPSAAQPPPSAPPGGLKKYEEPLQSMISQTQSLGGPPLEHEVPGHPQGGDMGQQMNMMMQRLGQDSLTPEQVAWRKLQEEYYEEKRRKEEQIGLHGGRPLQDMVGMGGMMGRGPPPPYHSK
notes: Expressed in COS-7 and NIH 3T3 cells; not shown: green fluorescent protein (GFP) as encoded by vector pEGFP-C2 (Clontech)
B5: GAL4 AD fusion of B9L partial fragment, residues 292-439 of SEQ ID NO: 2 (other, not shown: large carriers)
chain: PSAGTPQSQPPPLPPPPPAPGSAPPALPPEGPPEDTSQDLAPNSVGAASTGGGTGGTHPNTPTAATANNPLPPGGDPGSAPGSALLGEATPTGNGQRNLVGSEGLSKEQLEHRERSLQTLRDIERLLLRSGETEPFLKGPPGGAGEGG
notes: Two-hybrid prey; also called B9L fragment of residues 292-439
B6: Mutated mouse β-catenin S33Y (other, UniProt Q02248 1-781, looked up)
chain: MATQADLMELDMAMEPDRKAAVSHWQQQSYLDYGIHSGATTTAPSLSGKGNPEEEDVDTSQVLYEWEQGFSQSFTQEQVADIDGQYAMTRAQRVRAAMFPETLDEGMQIPSTQFDAAHPTNVQRLAEPSQMLKHAVVNLINYQDDAELATRAIPELTKLLNDEDQVVVNKAAVMVHQLSKKEASRHAIMRSPQMVSAIVRTMQNTNDVETARCTAGTLHNLSHHREGLLAIFKSGGIPALVKMLGSPVDSVLFYAITTLHNLLLHQEGAKMAVRLAGGLQKMVALLNKTNVKFLAITTDCLQILAYGNQESKLIILASGGPQALVNIMRTYTYEKLLWTTSRVLKVLSVCSSNKPAIVEAGGMQALGLHLTDPSQRLVQNCLWTLRNLSDAATKQEGMEGLLGTLVQLLGSDDINVVTCAAGILSNLTCNNYKNKMMVCQVGGIEALVRTVLRAGDREDITEPAICALRHLTSRHQEAEMAQNAVRLHYGLPVVVKLLHPPSHWPLIKATVGLIRNLALCPANHAPLREQGAIPRLVQLLVRAHQDTQRRTSMGGTQQQFVEGVRMEEIVEGCTGALHILARDVHNRIVIRGLNTIPLFVQLLYSPIENIQRVAAGVLCELAQDKEAAEAIEAEGATAPLTELLHSRNEGVATYAAAVLFRMSEDKPQDYKKRLSVELTSSLFRTEPMAWNETADLGLDIGAQGEALGYRQDDPSYRSFHSGGYGQDALGMDPMMEHEMGGHHPGADYPVDGLPDLGHAQDLMDGLPPGDSNQLAWFDTDL
notes: Expressed from pMKITneo in COS-7 or NIH 3T3 cells; also called S33Y β-catenin

Legend:
[1] = biological target: T2, GAL4-β-catenin fusion protein (GAL4 BD fused with mouse β-catenin armadillo domain, residues 128 to 683) (yeast; mouse, UniProt P04386 1-147; Q02248 128-683); experiment: yeast two-hybrid, β-galactosidase activity
T2 construct: Bait of the yeast two-hybrid system; also called mβ-catenin arm; β-catenin arm bait plasmid
From the text: The respective bait plasmids were cotransfected with the B9L cDNA fragment-expressing clone obtained by the two-hybrid system in Example 1 into yeast HF7C strain, and the binding between the B9L protein and the respective β-catenin partial fragments were examined by the existence of β-galactosidase activity in the transformants. […] Thus, it was considered that the B9L protein binds to the N-terminal region of β-catenin arm (armadillo repeats 1-6).
In order to further examine which region of the B9L protein binds to the β-catenin arm, two-hybrid system was performed as follows. […] Each plasmid was cotransfected with the β-catenin arm bait plasmid prepared in Example 1 into yeast HF7C strain, and the binding of each B9L protein partial fragment and β-catenin arm was examined based on the presence or absence of β-galactosidase activity in the transformants. […] Thus, the B9L protein was indicated to bind to the β-catenin arm at the region of residues 292-439 in the amino acid sequence represented by SEQ ID NO: 2.

[2] = biological target: B6; experiment: co-immunoprecipitation from COS-7 lysates with anti-GFP antibody, Western blotting with anti-β-catenin antibody
From the text: The B9L cDNA fragment obtained in Example 1 was inserted into pEGFP-C2, green fluorescent protein (GFP) expression vector (Clontech), to construct an expression plasmid for GFP-B9L fusion protein (hereinafter abbreviated as GFP-B9L). Mutated mouse β-catenin S33Y cDNA wherein serine 33, the target site of GSK-3β-mediated phosphorylation, is substituted with tyrosine was subcloned into animal cell expression plasmid vector pMKITneo (Nakamura et al., Genes to cells 3: 395 (1998)) to construct an expression plasmid for S33Y β-catenin. These plasmids were transfected using LipofectAMINE (Life Technologies) into monkey kidney cell line COS-7 cells (ATCC: CRL-1651) for forced expression. After 24 hr, the cells were harvested to prepare cell lysates by adding buffer A containing 1% Triton X-100. The cell lysates were reacted with anti-GFP antibody or anti-β-catenin antibody at 4° C. for 1 hr to form an immune complex between GFP-B9L or S33Y β-catenin and the respective antibody, and then Protein G-Sepharose 4B (Amersham Pharmacia Biotech), which is capable of binding to IgG, was added to the reaction solution to adsorb the immune complex. The Protein G-Sepharose 4B was washed well with lysis buffer A, and SDS-PAGE sample buffer was added to elute the immune complex. […]

[3] = biological target: T1, GFP-B9L (full-length), full-length B9L …; experiment: co-localisation in the nucleus of mouse 3T3 cells, fluorescence microscopy (indirect)
Description: The plasmids for the expression of GFP-B9L and S33Y β-catenin constructed in Example 3 were transfected alone or together into mouse NIH 3T3 cells using Effectene (QIAGEN), and were forcedly expressed. GFP expression vector pEGFP-C2, as a control, was also transfected into mouse NIH 3T3 cells and was forcedly expressed. After 24 hours, the cells were fixed with formaldehyde, stained with anti-β-catenin antibody, reacted with rhodamine isothiocyanate (RITC)-labeled anti-rabbit IgG antibody, and observed by fluorescence microscopy to detect S33Y β-catenin in the cell. GFP-B9L was directly detected by observation of GFP under fluorescence microscopy (with the use of-FITC filter).
The full-length B9L cDNA obtained in Example 1 was inserted into the ECORI-SalI site of pEGFP-C2 to prepare plasmid pEGFP-C2B9L for the expression in animal cells, cotransfected with S33Y β-catenin expression plasmid into mouse 3T3 cells and the plasmids were forcedly expressed as described above, and S33Y β-catenin was. detected in the cells. Similar to theB9L protein fragment obtained by the two hybrid system, both S33Y β-catenin and GFP-B9L (full-length) were localized in the nucleus. Thus, the full-length B9L protein was also confirmed to bind to β-catenin and localizes β-catenin into the nucleus.

Row | Binder | binding result [1] | also measured
1 | B1 | binds | 
2 | B2 | binds | 
3 | LANTAAEAVLQGRAESILAYHQQNVPRAKLDQAPKVPPTPEPLPLNT (other, not shown: large carriers, Two-hybrid prey) [GAL4 AD fusion of B9L partial fragment, residues 245-291 of SEQ ID NO: 2] | no binding | 
4 | B3 | no binding | 
5 | B4 |  | binding result [2]: binds
6 | B5 | binds | 
7 | B6 |  | binding result [3]: binds
